The record followed here is US20180291362A1 (SEOUL NATIONAL UNIVERSITY R AND DB FOUNDATION, published 2018).

This data set concerns the molecule itself. The experiment in a line: non-reducing vs reducing SDS PAGE, subunit self-association (disulfide cross-link). The method, then:
In order to observe the disulfide bonding of lysine decarboxylase mutant strain, the protein sizes when reducing power was applied and not applied to wild type lysine decarboxylase LdcI (SEQ ID NO: 15) and the mutant strain wherein phenylalanine at position 14 is substituted with cysteine, and lysine at position 44 is substituted with cysteine (F14C/K44C, SEQ ID NO: 6) were measured with SDS PAGE. Such a measurement can confirm whether a shared bond is formed between sulfur elements in a form —S—S— wherein two SH groups added to the mutant strain are producing in oxidation. In a reducing SDS PAGE, reducing power is applied to both of the wild type and the mutant strain to break all disulfides where bonding is possible, and then the sizes are observed, and in non-reducing SDS PAGE, it was observed whether disulfide bond is formed.

B1: lysine decarboxylase LdcI mutant strain wherein phenylalanine at position 14 is substituted with cysteine, and lysine at position 44 is substituted with … (enzyme)
chain: MNVIAILNHMGVYCKEEPIRELHRALERLNFQIVYPNDRDDLLCLIENNARLCGVIFDWDKYNLELCEEISKMNENLPLYAFANTYSTLDVSLNDLRLQISFFEYALGAAEDIANKIKQTTDEYINTILPPLTKALFKYVREGKYTFCTPGHMGGTAFQKSPVGSLFYDFFGPNTMKSDISISVSELGSLLDHSGPHKEAEQYIARVFNADRSYMVTNGTSTANKIVGMYSAPAGSTILIDRNCHKSLTHLMMMSDVTPIYFRPTRNAYGILGGIPQSEFQHATIAKRVKETPNATWPVHAVITNSTYDGLLYNTDFIKKTLDVKSIHFDSAWVPYTNFSPIYEGKCGMSGGRVEGKVIYETQSTHKLLAAFSQASMIHVKGDVNEETFNEAYMMHTTTSPHYGIVASTETAAAMMKGNAGKRLINGSIERAIKFRKEIKRLRTESDGWFFDVWQPDHIDTTECWPLRSDSTWHGFKNIDNEHMYLDPIKVTLLTPGMEKDGTMSDFGIPASIVAKYLDEHGIVVEKTGPYNLLFLFSIGIDKTKALSLLRALTDFKRAFDLNLRVKNMLPSLYREDPEFYENMRIQELAQNIHKLIVHHNLPDLMYRAFEVLPTMVMTPYAAFQKELHGMTEEVYLDEMVGRINANMILPYPPGVPLVMPGEMITEESRPVLEFLQMLCEIGAHYPGFETDIHGAYRQADGRYTVKVLKEESKK
modifications: disulfide bond between the introduced cysteines (positions 14 and 44) of neighbouring subunits
notes: Purified enzyme; also called F14C/K44C; F14C/K44C mutant strain
B1: the binding result is “binds”.
